Measurements from the RNAGym collection of RNA variant scans (doi:10.7554/elife.80360).

B1: HDV Ribozyme (parent)
chain: GGCCGGCAUGGUCCCAGCCUCCUCGCUGGCGCCGGCUGGGCAACAUUCCGAGGGGACCGUCCCCUCGGUAAUGGCGAAUGGGACCCA

Variants of: B1
Assay: self-cleavage, relative activity (ratio to wild type); higher = more cleavage; co-transcriptional

Compared with C62U C85U, G25U C58A is lower in self-cleavage: 0.964 for the first, 0.244 for the second.

First: G5U U20G
Second: A56U G81A
The self-cleavage of the first is lower: 0.111 for the first, 0.492 for the second.

Compared with G74U G81A, A16C U27A is higher in self-cleavage: 0.211 for the first, 0.684 for the second.

Compared with C21U C58U, G38C G82A is lower in self-cleavage: 0.203 for the first, 0.0594 for the second.

Compared with C32U G67U, A16U A83C is lower in self-cleavage: 0.88 for the first, 0.575 for the second.

Compared with C19G G50C, G11A A51G is higher in self-cleavage: 0.0528 for the first, 0.374 for the second.

First: G1U A42C
Second: G10A A70U
The self-cleavage of the first is lower: 0.332 for the first, 0.533 for the second.

Compared with G73A G82U, C7U C30G is lower in self-cleavage: 0.151 for the first, 0 for the second.

Compared with G31C G59C, C33G C63G is lower in self-cleavage: 0.378 for the first, 0.369 for the second.

Going from C41A C61G to G17C A42G, the self-cleavage falls from 0.909 to 0.

Compared with C32U C66G, C49A C57U is higher in self-cleavage: 0.739 for the first, 1.15 for the second.

Compared with U69G G81C, C14A C18U is lower in self-cleavage: 0.101 for the first, 0 for the second.

Compared with G11U A43C, C24U A71G is higher in self-cleavage: 0.0594 for the first, 0.648 for the second.

Compared with C4U G53C, U12G G76U is higher in self-cleavage: 0.782 for the first, 1.17 for the second.

Going from G6C C36G to G10A G52U, the self-cleavage rises from 0.158 to 0.838.

Going from G6U U46C to A8C U65C, the self-cleavage rises from 0.133 to 0.684.

Compared with U37C A77G, U27G G35C is lower in self-cleavage: 1.03 for the first, 0.0594 for the second.

Compared with C13U C33G, G1C U60C is lower in self-cleavage: 0.252 for the first, 0.0639 for the second.

Going from C15U G52A to U9A G53U, the self-cleavage rises from 0.863 to 1.28.

Compared with G54A U65A, G54A C84U is higher in self-cleavage: 0.267 for the first, 0.563 for the second.

Going from A8C C66U to G10A C36U, the self-cleavage falls from 0.76 to 0.396.

First: G2U U37A
Second: G17C G74C
The self-cleavage of the first is higher: 0.0378 for the first, 0 for the second.

First: G2A C61G
Second: U23G A45U
The self-cleavage of the first is lower: 0.102 for the first, 0.312 for the second.

Going from G25A U65A to G10C C86G, the self-cleavage rises from 0.122 to 0.538.

First: C14A C33G
Second: C15U C62A
The self-cleavage of the first is lower: 0.213 for the first, 1.08 for the second.

Compared with A8G A71G, A16C G76U is higher in self-cleavage: 0.739 for the first, 0.88 for the second.

Going from C4U U9G to G28C G82A, the self-cleavage falls from 0.782 to 0.0852.

Compared with C18G G25C, C7U C57U is higher in self-cleavage: 0.222 for the first, 0.927 for the second.

Going from G40C C48G to C24A C41A, the self-cleavage rises from 0.35 to 0.369.

Going from U65G A77C to G1C A43C, the self-cleavage falls from 0.356 to 0.332.

Going from U9A C15U to C15U G74U, the self-cleavage falls from 1.02 to 0.485.

Compared with C41U A45C, G52A G80A is lower in self-cleavage: 0.569 for the first, 0.386 for the second.

First: C36G C58A
Second: U12A C18A
The self-cleavage of the first is higher: 0.201 for the first, 0.0604 for the second.

Compared with C57A A71C, G31A C41G is lower in self-cleavage: 0.866 for the first, 0.106 for the second.

First: C21U U27A
Second: C64G U72C
The self-cleavage of the first is lower: 0.0536 for the first, 0.364 for the second.

Compared with U46G C75U, C62A A78U is higher in self-cleavage: 0.107 for the first, 0.185 for the second.

First: G68C A77U
Second: G35A G38A
The self-cleavage of the first is higher: 0.755 for the first, 0.0923 for the second.

First: A42C G53A
Second: G29U C66A
The self-cleavage of the first is higher: 0.289 for the first, 0.201 for the second.

Compared with G50C U79G, G1C G74C is lower in self-cleavage: 0.723 for the first, 0 for the second.

First: C49A C66G
Second: U65G U69A
The self-cleavage of the first is lower: 0.96 for the first, 1.23 for the second.

Going from G1A G25U to G29C U79G, the self-cleavage falls from 0.0462 to 0.

Compared with C4U C36A, U20C C66G is higher in self-cleavage: 0 for the first, 0.131 for the second.
